Data from patent US20180177842A1 (CANIMGUIDE THERAPEUTICS, published 2018).
Ends that are not written are not given here.

Biological target: T1, His-tagged P3028 (human, also: His tag, length and end not given here)
T1 construct: in solution at 0.5 ug/mL, detected with mouse anti-His antibody and rabbit anti-mouse peroxidase (rampo); also called PGE73; His-tag-P3028; not shown: His tag
T1 peptide: VFDEFKPLVEEPQNLIK
Assay: PEPSCAN ELISA, peptide on chip;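 also: binding detected by peroxidase ELISA with ABTS, OD405 colour imaged by CCD camera before and after staining, raw OD405 reported as rampo units, air-bubble wells scored 0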
For KKLETFFVKLSLFTER [SEQ ID NO 299], the “RAMPO Score” value was 417 rampo units.
For KKLDTFFVKLSTFTER [SEQ ID NO 358], the “RAMPO Score” value was 437 rampo units.
KKLDTFFVKPSLFTER [SEQ ID NO 338] was tested, and the “RAMPO Score” value was 436 rampo units.
With KKLDTFFLKLSLFTER [SEQ ID NO 328] the “RAMPO Score” value was 411 rampo units.
For KKLDTFFVKLTLFTER [SEQ ID NO 349], the “RAMPO Score” value was 520 rampo units.
With KKLDTFFVKLSSFTER [SEQ ID NO 357] the “RAMPO Score” value was 478 rampo units.
For KKLDTIFVKLSLFTER [SEQ ID NO 314], the “RAMPO Score” value was 466 rampo units.
KKLDTFFVKASLFTER [SEQ ID NO 332] was tested, and the “RAMPO Score” value was 426 rampo units.
For KKLDTFVVKLSLFTER [SEQ ID NO 325], the “RAMPO Score” value was 527 rampo units.
For KKLDTFFVKMSLFTER [SEQ ID NO 336], the “RAMPO Score” value was 460 rampo units.
KKLDTFTVKLSLFTER [SEQ ID NO 324] was tested, and the “RAMPO Score” value was 517 rampo units.
KKLDTFFVKQSLFTER [SEQ ID NO 339] was tested, and the “RAMPO Score” value was 470 rampo units.
KKLDTFFVKLSLLTER [SEQ ID NO 366] was tested, and the “RAMPO Score” value was 448 rampo units.
With KKLDTFFVKLHLFTER [SEQ ID NO 345] the “RAMPO Score” value was 535 rampo units.
KKLDTFFVKYSLFTER [SEQ ID NO 344] was tested, and the “RAMPO Score” value was 382 rampo units.
With KKLDTPFVKLSLFTER [SEQ ID NO 317] the “RAMPO Score” value was 497 rampo units.
For KKLDTFFVKLSWFTER [SEQ ID NO 360], the “RAMPO Score” value was 409 rampo units.
With KKLDCFFVKLSLFTER [SEQ ID NO 304] the “RAMPO Score” value was 449 rampo units.
For KKLDTFFVKLSRFTER [SEQ ID NO 356], the “RAMPO Score” value was 483 rampo units.
In the case of KKLDTFFVKLSNFTER [SEQ ID NO 354], the “RAMPO Score” value is reported as 462 rampo units.
For KKLDTFFVKLSMFTER [SEQ ID NO 353], the “RAMPO Score” value was 499 rampo units.
KKLITFFVKLSLFTER [SEQ ID NO 300] was tested, and the “RAMPO Score” value was 430 rampo units.
With KKLDTFMVKLSLFTER [SEQ ID NO 321] the “RAMPO Score” value was 712 rampo units.
With KKLDTFFVKFSLFTER [SEQ ID NO 333] the “RAMPO Score” value was 403 rampo units.
In the case of KKLDMFFVKLSLFTER [SEQ ID NO 305], the “RAMPO Score” value is reported as 475 rampo units.
In the case of KKLDTFFVKTSLFTER [SEQ ID NO 342], the “RAMPO Score” value is reported as 399 rampo units.
For KKLDTVFVKLSLFTER [SEQ ID NO 319], the “RAMPO Score” value was 547 rampo units.
For KKLDTFFPKLSLFTER [SEQ ID NO 329], the “RAMPO Score” value was 456 rampo units.
For KKLDTFFVKLSLNTER [SEQ ID NO 368], the “RAMPO Score” value was 862 rampo units.
In the case of KKLDTFFVKLSQFTER [SEQ ID NO 355], the “RAMPO Score” value is reported as 651 rampo units.
For KKLDTAFVKLSLFTER [SEQ ID NO 313], the “RAMPO Score” value was 575 rampo units.
In the case of KKLDTFFVKSSLFTER [SEQ ID NO 341], the “RAMPO Score” value is reported as 351 rampo units.
For KKLDTTFVKLSLFTER [SEQ ID NO 318], the “RAMPO Score” value was 481 rampo units.
For KKLDTFFVKRSLFTER [SEQ ID NO 340], the “RAMPO Score” value was 439 rampo units.
In the case of KKLDTFFVKLSVFTER [SEQ ID NO 359], the “RAMPO Score” value is reported as 545 rampo units.
KKLDTFFVKLNLFTER [SEQ ID NO 347] was tested, and the “RAMPO Score” value was 451 rampo units.
For KKLDTFFVKLQLFTER [SEQ ID NO 348], the “RAMPO Score” value was 768 rampo units.
KKLDWFFVKLSLFTER [SEQ ID NO 311] was tested, and the “RAMPO Score” value was 418 rampo units.
With KKLDTFFVKVSLFTER [SEQ ID NO 343] the “RAMPO Score” value was 658 rampo units.
In the case of KKLDYFFVKLSLFTER [SEQ ID NO 312], the “RAMPO Score” value is reported as 425 rampo units.
KKLDTFSVKLSLFTER [SEQ ID NO 323] was tested, and the “RAMPO Score” value was 700 rampo units.
KKLVTFFVKLSLFTER [SEQ ID NO 301] was tested, and the “RAMPO Score” value was 424 rampo units.
In the case of KKLDTFFVKLSLCTER [SEQ ID NO 362], the “RAMPO Score” value is reported as 400 rampo units.
With KKLDTFFVKLSLATER [SEQ ID NO 361] the “RAMPO Score” value was 525 rampo units.
In the case of KKLDTFLVKLSLFTER [SEQ ID NO 320], the “RAMPO Score” value is reported as 517 rampo units.
In the case of KKLDTFFVKLSLMTER [SEQ ID NO 367], the “RAMPO Score” value is reported as 1190 rampo units.
For KKLDNFFVKLSLFTER [SEQ ID NO 306], the “RAMPO Score” value was 436 rampo units.
In the case of KKLDSFFVKLSLFTER [SEQ ID NO 310], the “RAMPO Score” value is reported as 458 rampo units.
KKLDTFFVKNSLFTER [SEQ ID NO 337] was tested, and the “RAMPO Score” value was 365 rampo units.
For KKLWTFFVKLSLFTER [SEQ ID NO 302], the “RAMPO Score” value was 443 rampo units.
With KKLDTFFVKLSIFTER [SEQ ID NO 352] the “RAMPO Score” value was 456 rampo units.
In the case of KKLDTFFVKISLFTER [SEQ ID NO 335], the “RAMPO Score” value is reported as 415 rampo units.
KKLDTFFVKLSLPTER [SEQ ID NO 369] was tested, and the “RAMPO Score” value was 696 rampo units.
For KKLDTFFVKLSLITER [SEQ ID NO 365], the “RAMPO Score” value was 468 rampo units.
In the case of KKLDTFFVKLSAFTER [SEQ ID NO 350], the “RAMPO Score” value is reported as 462 rampo units.
KKLDRFFVKLSLFTER [SEQ ID NO 309] was tested, and the “RAMPO Score” value was 430 rampo units.
KKLDTFQVKLSLFTER [SEQ ID NO 322] was tested, and the “RAMPO Score” value was 511 rampo units.
For KKLDTFFVKLSLHTER [SEQ ID NO 364], the “RAMPO Score” value was 1050 rampo units.
In the case of KKLDTFFGKLSLFTER [SEQ ID NO 327], the “RAMPO Score” value is reported as 379 rampo units.
In the case of KKLDTNFVKLSLFTER [SEQ ID NO 316], the “RAMPO Score” value is reported as 446 rampo units.
KKLDTMFVKLSLFTER [SEQ ID NO 315] was tested, and the “RAMPO Score” value was 467 rampo units.
KKLDTFFRKLSLFTER [SEQ ID NO 330] was tested, and the “RAMPO Score” value was 365 rampo units.
KKLDPFFVKLSLFTER [SEQ ID NO 307] was tested, and the “RAMPO Score” value was 427 rampo units.
For KKLDTFFVKLSLGTER [SEQ ID NO 363], the “RAMPO Score” value was 531 rampo units.
For KKLDTFFVKLMLFTER [SEQ ID NO 346], the “RAMPO Score” value was 744 rampo units.
In the case of KKLYTFFVKLSLFTER [SEQ ID NO 303], the “RAMPO Score” value is reported as 422 rampo units.
KKLDTFFVRLSLFTER [SEQ ID NO 331] was tested, and the “RAMPO Score” value was 374 rampo units.
For KKLDTFFVKLSHFTER [SEQ ID NO 351], the “RAMPO Score” value was 460 rampo units.
In the case of KKLDTFFFKLSLFTER [SEQ ID NO 326], the “RAMPO Score” value is reported as 358 rampo units.
KKLDQFFVKLSLFTER [SEQ ID NO 308] was tested, and the “RAMPO Score” value was 535 rampo units.
For KKLDTFFVKGSLFTER [SEQ ID NO 334], the “RAMPO Score” value was 495 rampo units.
